Results reported in patent publication US20090305951A1 (published 2009).

Molecular target: FGF-receptor on dissociated neurons from embryonic rat hippocampus (rat)
Assay: cell-based or functional assay

| neurite outgrowth from hippocampal neurons, 50 µM peptide, relative to the entire FG loop peptide [%] | Binder |
| --- | --- |
| ~50 | VAENQQGKS [truncated version of the FG loop peptide, nonamer Val 76-Ser 84] |
| ~50 | AENQQGK [truncated version of the FG loop peptide, heptamer Ala 77-Lys 83] |
